Test results as given in PMC3700536 (Nature communications, 2013).

T1: purified β2-chimaerin (UniProt P52757-1 1-468)
T1 sequence: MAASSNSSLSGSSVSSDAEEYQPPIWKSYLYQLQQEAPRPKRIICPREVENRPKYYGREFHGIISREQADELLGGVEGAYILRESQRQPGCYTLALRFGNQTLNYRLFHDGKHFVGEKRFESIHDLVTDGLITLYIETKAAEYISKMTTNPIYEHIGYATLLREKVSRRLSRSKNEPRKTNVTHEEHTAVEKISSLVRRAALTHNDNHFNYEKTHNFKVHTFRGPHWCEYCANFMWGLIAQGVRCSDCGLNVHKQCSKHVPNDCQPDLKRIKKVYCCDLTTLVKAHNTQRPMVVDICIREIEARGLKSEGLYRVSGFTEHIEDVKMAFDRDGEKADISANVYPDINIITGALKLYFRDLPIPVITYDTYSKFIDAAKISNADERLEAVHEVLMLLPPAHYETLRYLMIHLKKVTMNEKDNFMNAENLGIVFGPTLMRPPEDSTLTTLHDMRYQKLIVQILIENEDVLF

B1: Nck1 SH3-3 (purified third SH3 domain of Nck1) (domain or fragment)
chain: QVLHVVQALYPFSSSNDEELNFEKGDVMDVIEKPENDPEWWKCRKINGMVGLVPKNYVTVMQN

Experiments:
GST-Nck1 SH3-3 = GST-Nck1 SH3-3 (UniProt P16333); test: SPR
purified β2-chimaerin = molecular target: T1, purified β2-chimaerin; test: co-sedimentation

Molecule | Kd (GST-Nck1 SH3-3) | Kd (purified β2-chimaerin)
WT-β2-chim peptide (β2-chimaerin amino acids 34–59) | 18 µM | –
B1 | – | 1.7 µM
